T1: polypeptide GC3pep (human)
T1 construct: also called membrane proximal polypeptide GC3pep
T1 peptide: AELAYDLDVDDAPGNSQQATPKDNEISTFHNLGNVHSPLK


Experiments:
[1] = target: T1, polypeptide GC3pep; assay: ELISA, GC3pep coated, antibody 0.1 nM;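 further: antibody allowed to bind the coated plate 2 h at 37 °C, then detected via HRP-conjugated secondary antibody and TMB development for 10 min, stopped with HCl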
[2] = target: T1, polypeptide GC3pep; assay: ELISA, GC3pep coated, antibody 0.01 nM;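 further: bound antibody detected with an HRP-conjugated secondary antibody and TMB substrate, color reaction stopped with HCl before reading absorbance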
Experimental: (§1) The plate was sealed with a plastic film and incubated at 4° C. overnight, washed twice with PBS the next day, and a blocking solution [PBS+2% (w/w) BSA] was added for blocking at room temperature for 2 h. […] After incubation at 37° C. for 2 h, the plate was washed 3 times with PBS. A horseradish peroxidase (HRP)-labeled secondary antibody (purchased from Merck, Cat. No. AP113P) was added for incubation at 37° C. for 1 h, and the plate was washed 5 times with PBS. A TMB substrate was added at 50 μL/well for incubation at room temperature for 10 min, then a stop solution (1.0M HCl) was added at 50 μL/well.

[3] = target: T1, polypeptide GC3pep; assay: ELISA, GC3pep coated, antibody 0.001 nM
[4] = target: T1, polypeptide GC3pep; assay: ELISA, GC3pep coated, antibody 10 nM;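 further: antibody bound to the coated peptide for 2 h at 37 °C, detected through an HRP-conjugated secondary antibody with TMB colour development stopped by acid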
[5] = target: T1, polypeptide GC3pep; assay: ELISA, GC3pep coated, antibody 1 nM;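 further: bound antibody detected with an HRP-conjugated secondary antibody and TMB substrate, reaction stopped with HCl, after 2 h binding at 37 °C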
Experimental: as §1

[6] = target: T1, polypeptide GC3pep; assay: ELISA, GC3pep coated, antibody 0.0001 nM
[7] = target: T1, polypeptide GC3pep; assay: ELISA, GC3pep coated, antibody 100 nM;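 further: detection with an HRP-conjugated secondary antibody and TMB substrate, color reaction stopped with HCl before absorbance reading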
[8] = target: T2, GPC3 endogenously expressed on HepG2 cells (UniProt P51654 25-554); assay: FACS on HepG2 cells;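 further: flow cytometric binding of chimeric antibodies to cells, read as mean fluorescence intensity, EC50 obtained by curve fitting of the MFI data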
T2 construct: whole, on cells
Experimental: The desired cells were expanded to a logarithmic growth phase in a T-75 cell culture flask, the medium was removed by pipetting, and the cells were washed twice with a PBS buffer, and digested with trypsin. Then a complete medium was added to stop the digestion, and the cells were blown into a single cell suspension. After counting, the cells were centrifuged, and the cell pellet was resuspended with an FACS buffer (PBS+2% fetal bovine serum) to 2×10⁶ cells/mL. The cell resuspension solution was added to a 96-well FACS reaction plate at 50 μl/well, and a chimeric antibody sample to be tested was added at 50 μl/well for incubation at 4° C. for 1 h. […] After the plate was centrifuged and washed 3 times with a PBS buffer, 100 μl of the resulting solution was assayed and analyzed by FACS (FACS Canto™, purchased from BD Biosciences). Data analysis was performed by software (FlowJo) to obtain the mean fluorescence intensity (MFI) of the cells. Then, analysis was performed by software (GraphPad Prism8), data were fitted, and EC₅₀ values were calculated.

[9] = target: T3, human GPC3-His protein (human, UniProt P51654 25-559); assay: ELISA, coated human GPC3, antibody 0.01 nM;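 further: Plate-bound antigen coated at 1 µg/mL, antibody incubated 2 h at 37 °C, binding detected by HRP-conjugated secondary antibody with TMB substrate, read as absorbance at 450 nm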
T3 construct: Bought protein; also called human GPC3 protein; not shown: His tag

[10] = target: T3, human GPC3-His protein; assay: ELISA, coated human GPC3, antibody 0.001 nM
[11] = target: T3, human GPC3-His protein; assay: ELISA, coated human GPC3, antibody 0.0001 nM
[12] = target: T3, human GPC3-His protein; assay: ELISA, coated human GPC3, antibody 1 nM;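 further: antigen coated at 1 µg/mL on 96-well plates, antibody bound for 2 h at 37 °C, detected with HRP-labeled secondary antibody and TMB, absorbance read at 450 nm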
Experimental: (§2) The specific method is described as follows: The antigen protein was diluted with PBS to a final concentration of 1 μg/mL, and the diluent was added to a 96-well ELISA plate at 50 μL/well. The plate was sealed with a plastic film and incubated at 4° C. overnight, washed twice with PBS the next day, and a blocking solution [PBS+2% (w/w) BSA] was added for blocking at room temperature for 2 h. […] After incubation at 37° C. for 2 h, the plate was washed 3 times with PBS. A horseradish peroxidase (HRP)-labeled secondary antibody (purchased from Merck, Cat. No. AP113P) was added for incubation at 37° C. for 1 h, and the plate was washed 5 times with PBS. A TMB substrate was added at 50 μL/well for incubation at room temperature for 10 min, then a stop solution (1.0M HCl) was added at 50 μL/well. An ELISA plate reader (Multimode Plate Reader, EnSight, purchased from Perkin Elmer) was used to read OD_{450 nm} values, with results as shown in Table 4 to Table 6, FIG. 1A, FIG. 1B, and FIG. 1C.

[13] = target: T3, human GPC3-His protein; assay: ELISA, coated human GPC3, antibody 0.1 nM;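 further: antigen coated on 96-well plates at 1 µg/mL, antibody bound 2 h at 37 °C, detected with HRP-labeled secondary antibody and TMB substrate, acid-stopped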
[14] = target: T3, human GPC3-His protein; assay: ELISA, coated human GPC3, antibody 10 nM;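 further: plate coated with antigen at 1 µg/mL, antibodies bound 2 h at 37 °C, detected via HRP-conjugated secondary antibody and TMB substrate, absorbance read after acid stop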
Experimental: as §2

[15] = target: T4, human GPC3 on CHO-K1-human GPC3 cells (clone CHOK1-hGPC3.2B5) (human, UniProt P51654 25-554); assay: FACS on CHOK1-hGPC3.2B5 cells;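 further: flow cytometry binding of chimeric antibodies to the cells, read out as mean fluorescence intensity, with the half-maximal concentration derived by curve fitting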
T4 construct: whole, on cells; Stably transfected CHO-K1 clone 2B5

[16] = target: T3, human GPC3-His protein; assay: ELISA, coated human GPC3, antibody 100 nM;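 further: antibodies bound to antigen-coated 96-well plates (1 µg/mL), 2 h at 37 °C, detected with HRP-labelled secondary antibody and TMB substrate, absorbance read at 450 nm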

| Binder | OD450 nm [1] | OD450 nm [2] | OD450 nm [3] | OD450 nm [4] | OD450 nm [5] | OD450 nm [6] | OD450 nm [7] | EC50 [8] | Max MFI [8] | OD450 nm [9] | OD450 nm [10] | OD450 nm [11] | OD450 nm [12] | OD450 nm [13] | OD450 nm [14] | EC50 [15] | Max MFI [15] | OD450 nm [16] |
| --- | --- | --- | --- | --- | --- | --- | --- | --- | --- | --- | --- | --- | --- | --- | --- | --- | --- | --- |
| F1.41.17 (antibody, human IgG1, kappa, V domains shown, human-murine chimeric antibody) VH: EVQLVESGGDSVKPGGSLKLSCAASGFTFSSYGMSWVRQTPDKRLEWVATINSGGSYTYYQDSVKGRFTISRDNAKNTLYLQMSSLKSEDTAIYYCVRHHYGSSYDYFDYWGQGTTLTVSS VL: DIVMTQAAPSVPVMPGESVSISCRSSKSLLHSNGNTHLYWFLQRPGQSPQLLIYRMSNLASGVPDRFSGSGSGTAFTLRISRVEAEDVGVYYCMQHLEYPLTFGAGTKLELKR | 0.05 OD450 nm | 0.05 OD450 nm | 0.05 OD450 nm | 0.05 OD450 nm | 0.05 OD450 nm | 0.05 OD450 nm | 0.06 OD450 nm |  |  |  |  |  |  |  |  |  |  |  |
| F1.83.6 (antibody, human IgG1, kappa, V domains shown, human-murine chimeric antibody) VH: QVQLQQSGPELVKPGASVKISCKASGYAFSSSWMNWVKQRPGKGLEWIGRIYPGDGDTNYNGRFKGKATLTVDKSSSTAYMQLSSLTSEDSAVYFCARGGVFTMALDHWGQGTTLTVSS VL: DIQMTQSPSSLSASLGGKVTITCKASQDINKYIAWYQHKPGKGPRLLIHYTSTLQPGIPSRFSGSGSGRDYSFSISNLEPEDIATYYCLQYDNLFTFGGGTKLEIKR | 0.05 OD450 nm | 0.05 OD450 nm | 0.05 OD450 nm | 0.06 OD450 nm | 0.05 OD450 nm | 0.04 OD450 nm | 0.07 OD450 nm |  |  |  |  |  |  |  |  |  |  |  |
| F4.21.16 human-murine chimeric antibody (antibody, human IgG1, kappa, V domains shown) VH: DVQLQESGPGLVKPSQSLSLTCSVTGYSITSGYYWNWIRQFPGNKLEWMGYISYDVTVNYNPSLKNRISITRDTSKNQFFLKLNSVTTEDTATYYCATITSVASMDHWGQGTSVTVSS VL: DILMTQTPLSLPVSLGDQASISCRSSQNIVHRNGNTYLEWYLQKPGQSPKLLLYKVSNRFSGVPDRFSGSGSGTDFTLKISRVEAEDLGIYYCFQGSHFPFTFGSGTKLEIKR |  |  |  |  |  |  |  | 2.31 nM | 1710 MFI | 0.15 OD450 | 0.1 OD450 | 0.1 OD450 | 1.37 OD450 | 0.46 OD450 | 1.14 OD450 | 3.25 nM | 2170 MFI | 0.52 OD450 |
| F1.92.17 (antibody, human IgG1, kappa, V domains shown, human-murine chimeric antibody) VH: EVQLQQSGPELVKPGASVKMSCKASGYTFTDYNMHWVRQSHGKSLEWIGYINPNNGDTIYNQNFKGKATLTVNKSSSTAYMELRSLTSEDSAVYYCSRTITYYYSMDYWGPGTSVTVSS VL: QIVLTQSPALMSASPGEKVTMTCSASSSVSYMYWYQQKPRSSPKPWIYLTSNLASGVPARFSGSGSGTSYSLTISSMEAEDAATYYCQQWSSNPLTFGAGTKLELKR | 0.06 OD450 nm | 0.05 OD450 nm | 0.05 OD450 nm | 0.06 OD450 nm | 0.05 OD450 nm | 0.05 OD450 nm | 0.1 OD450 nm |  |  |  |  |  |  |  |  |  |  |  |
| F1.73.9 (antibody, human IgG1, kappa, V domains shown, human-murine chimeric antibody) VH: QVQLKQSGAELVRPGASVKLSCKASGYTFTDYYINWVKQRPGQGLEWIARIYPGSGNTYYNEKFKGKATLTAEKSSSTAYMQFSSLTSEDSAVYFCACSTYYTMDYWGQGTSVTVSS VL: QIVLTQSPAIMSASLGERVTMTCTASSGVSSSYLHWYQQKPGSSPKLWIYTTSNLASGVPARFSGSGSGTSYSLTISSMEAEDAATYYCHQYHRSPYTFGGGTKLEIKR | 0.05 OD450 nm | 0.05 OD450 nm | 0.05 OD450 nm | 0.05 OD450 nm | 0.05 OD450 nm | 0.04 OD450 nm | 0.09 OD450 nm |  |  |  |  |  |  |  |  |  |  |  |
| F4.26.1 human-murine chimeric antibody (antibody, human IgG1, kappa, V domains shown) VH: QVQLKQSGPGLVQPSQSLSITCTVSGFSLTSYGVHWVRQSPGKGLEWLGVIWSSGNTDYNAVLISRLSIKKDDSKSQVFFKMNSPQVDDSAIYYCGRNGGWLLRGFMDFWGQGTSVTVSS VL: DVVMTQTPLSLPVSLGDQASISCRSSQSLLHSNGNTYLHWYLQRSGQSPNLLIYKVSNRFSGVPDRFSGGGSGTDFTLKISRVEAEDLGIYFCSQSTHVPWTFGGGTKLEIKR |  |  |  |  |  |  |  | 0.85 nM | 1600 MFI | 0.18 OD450 | 0.11 OD450 | 0.09 OD450 | 1.25 OD450 | 0.64 OD450 | 1.43 OD450 | 1.21 nM | 2810 MFI | 1 OD450 |
| F4.18.4 human-murine chimeric antibody (antibody, human IgG1, kappa, V domains shown) VH: QVQLHQSGAEMAKPGASVNLSCKTSGFTFTDYGISWVKQRTRQGLEWIGDIYPRHINIYYNEKFKDKATLTADRSSSTAYMELRSMTSEDSAVYFCARRGTTGRGALDYWGQGTSLTVSS VL: DILLTQSPAILSVSPGERVSFSCRASQSIGTSIHWYQQRTNGSPRLLIKYAFESISGIPSRFGGSGSRTDFTLTINSVESEDIADYYCQQTYNWPYTFGGGTKLEIKR |  |  |  |  |  |  |  | 0.92 nM | 1390 MFI | 0.26 OD450 | 0.15 OD450 | 0.16 OD450 | 1.41 OD450 | 0.83 OD450 | 1.18 OD450 | 0.89 nM | 2370 MFI | 1.02 OD450 |
| F1.57.21 (antibody, human IgG1, kappa, V domains shown, human-murine chimeric antibody) VH: QVQLQQSGAELARPGASVKLSCKASGYTFTSYGISWVKQITGQGLEWIGEIYPRSESTYYNEKFKGKATLTADKSSSTAYMELRSLTSEDSAVYFCARDYGNIYSFAYWGQGTLVTVSA VL: DIQMTQSPASLSASVGETVTITCRTSENIYSYLAWYQQKQGKSPQLLVYNAKTLAEGVPSRFSGSGSGTQFSLKINSLQPEDFGSYYCQHHYGTPLTFGAGTKLELKR | 0.05 OD450 nm | 0.05 OD450 nm | 0.05 OD450 nm | 0.05 OD450 nm | 0.05 OD450 nm | 0.05 OD450 nm | 0.06 OD450 nm |  |  |  |  |  |  |  |  |  |  |  |
| F1.78.24 (antibody, human IgG1, kappa, V domains shown, human-murine chimeric antibody) VH: QVQLQQSGAELVKPGASVKMSCKASGYTFTTYPIEWMKQNHGKSLEWIGNFHPYNDDTNYNVKFKGKATLTVEKSSSTVYLELSRLTSDDSALYYCARRREYYGSFDVWGTGTTVTVSS VL: not shown | 0.05 OD450 nm | 0.05 OD450 nm | 0.05 OD450 nm | 0.05 OD450 nm | 0.05 OD450 nm | 0.05 OD450 nm | 0.06 OD450 nm |  |  |  |  |  |  |  |  |  |  |  |
| F4.13.7 human-murine chimeric antibody (antibody, human IgG1, kappa, V domains shown) VH: QVQLQQPGAELVKPGASVKLSCKASGYTFTNNWVHWVKQRPGQGLEWTGMIHPDSGSTIYNEKFQSKATLTVDKSSSTAYMQLSSLTSEDSAVYYCARGYYDSSSYYAMDYWGQGTSVTVSS VL: NIQMTQTTSSLSASLGDRVTISCSASQGIFNYLNWYQQKPDGTVKLLIYYTSSLHSGVPSRFSGSGSGTDYSLTISNLEPEDIATYYCQQYSKLPWTFGGGTKLEIKR |  |  |  |  |  |  |  | 0.58 nM | 1150 MFI | 0.3 OD450 | 0.12 OD450 | 0.1 OD450 | 2.28 OD450 | 1.27 OD450 | 2.27 OD450 | 1.1 nM | 1710 MFI | 2.3 OD450 |
| F1.42.8 (antibody, human IgG1, kappa, V domains shown, human-murine chimeric antibody) VH: HVQLQQPGAELVKPGASVKLSCKASGYTFTSYWMHWVRQRPGQGLEWIEMIHPNSGSTNYNEKFKSKATLTVDKSSSTAYMQLSSLTSEDSAVYYCARGNYNSSLYAMDYWGQGTSVTVSS VL: DIQMTQTTSSLSASLGDRVTISCSASQGISNYLNWYQQKPDGTVKLLIYYASNLHSGVPSRFSGSGSGTAYSLTISNLEPEDIATYYCQQYSILPYTFGGGTKLEIKR | 0.05 OD450 nm | 0.05 OD450 nm | 0.05 OD450 nm | 0.05 OD450 nm | 0.05 OD450 nm | 0.05 OD450 nm | 0.06 OD450 nm |  |  |  |  |  |  |  |  |  |  |  |

From patent US20260116991A1 (HAINAN SIMCERE ZAIMING PHARMACEUTICAL, published 2026)
